In patent US6403325B1, “Methods and compounds for treating alzheimer's disease” (priority 1997, dated 2002):

B1: Wnt5a: Wnt family member expressed in C57MG cells from a Wnt5a retrovirus (protein, UniProt P22725 62-380, looked up)
Protein Wnt-5a: IIGAQPLCSQLAGLSQGQKKLCHLYQDHMQYIGEGAKTGIKECQYQFRHRRWNCSTVDNTSVFGRVMQIGSRETAFTYAVSAAGVVNAMSRACREGELSTCGCSRAARPKDLPRDWLWGGCGDNIDYGYRFAKEFVDARERERIHAKGSYESARILMNLHNNEAGRRTVYNLADVACKCHGVSGSCSLKTCWLQLADFRKVGDALKEKYDSAAAMRLNSRGKLVQVNSRFNSPTTQDLVYIDPSPDYCVRNESTGSLGTQGRLCNKTSEGMDGCELMCCGRGYDQFKTVQTERCHCKFHWCCYVKCKKCTEIVDQFVCK
B2: Wnt1: Wnt1 protein, member of the Wnt family, expressed in cells from a retrovirus encoding it (protein, UniProt P04426 28-370, looked up)
Proto-oncogene Wnt-1: ANSSGRWWGIVNIASSTNLLTDSKSLQLVLEPSLQLLSRKQRRLIRQNPGILHSVSGGLQSAVRECKWQFRNRRWNCPTAPGPHLFGKIVNRGCRETAFIFAITSAGVTHSVARSCSEGSIESCTCDYRRRGPGGPDWHWGGCSDNIDFGRLFGREFVDSGEKGRDLRFLMNLHNNEAGRTTVFSEMRQECKCHGMSGSCTVRTCWMRLPTLRAVGDVLRDRFDGASRVLYGNRGSNRASRAELLRLEPEDPAHKPPSPHDLVYFEKSPNFCTYSGRLGTAGTAGRACNSSSPALDGCELLCCGRGHRTRTQRVTERCNCTFHWCCHVSCRNCTHTRVLHECL

How the values were obtained:
[1] = tested on: C57MG mammary epithelial cell line; test: Aβ levels in C57MG cells infected with Wnt retrovirus; assay type: cell-based, mouse; settings: C57MG cells infected with retrovirus expressing the Wnt protein
[2] = tested on: PC12 cells; test: Aβ levels by ELISA in Wnt1-expressing PC12 lines; assay type: cell-based; settings: 12 independent Wnt1-expressing PC12 lines
Description: (§1) A retrovirus encoding the Wnt1 protein was introduced into PC12 cells as described in Mol. Cell. Biol. 14:466, (1995), and twelve independent Wnt1-expressing lines were established. Wnt1 expression in the lines was examined by measuring β-catenin levels.

[3] = tested on: PC12 cells; test: β-catenin levels in Wnt1-expressing PC12 lines; assay type: cell-based; settings: 12 independent Wnt1-expressing PC12 lines
Description: as §1

Molecule	Aβ levels [1]	levels of Aβ peptide in the cell lines ([2]; ELISA)	Aβ levels in the culture media ([2]; culture media)	β catenin stabilization [3]
B1	did not show increased Aβ levels	–	–	–
B2	increase in Aβ levels	positively correlated with Wnt1 expression	positive correlation with Wnt1 expression	positively correlated with the degree of β catenin stabilization
